Measurements as given in patent US8450284B2, “Coiled-coil lipopeptide helical bundles and synthetic virus-like particles” (Universitaet Zuerich, priority 2006, dated 2013).
Several values for one entry are separate records, joined by “and”; a condition that tells them apart may be missing. Identical values can stand only once. Ends that are not written are not given here.

Columns and labels:
Rabbits [1] = assay: Immunization of rabbits, ELISA for antibodies binding the conjugate used for immunization (Table 1); assay type: in vivo, rabbit; conditions: 150 μg conjugate, ELISA on the immunogen; for log10 (Endpoint titers) 2°: after first booster (serum day 38); for log10 (Endpoint titers) 3°: after second booster (serum day 66), rabbits in groups of two, each group given one conjugate
Method: (§1) Rabbits (groups of two) were each immunized with 150 μg of one conjugate, reconstituted and equilibrated for at least 1 h at r.t. in either 400 μl PBS (10 mM sodium phosphate, 154 mM NaCl, pH 7.2), or with Freund's adjuvant (Freund's complete adjuvant (FA) for primary and Freund's incomplete adjuvant (FIA) for booster immunizations). Immunizations were performed on days 0, 28 and 56. Sera were collected on days 14, 38 and 66. The sera were analyzed by enzyme-linked immunosorbent assay (ELISA), to detect antibodies that bind to the conjugates used for immunizations.
(§2) ELISA microtiter-plates (Nunc Immunoplates Polysorb F96) were coated overnight with a 5 μg/ml solution of each antigen in PBS. The wells were then washed with PBS containing 0.05% Tween 20 (PBST) and blocked with PBS containing 5% skimmed milk powder for 1 h at r.t. After blocking, the wells were washed three times with PBST and incubated with serial dilutions of rabbit serum in PBS containing 0.05% Tween 20 and 0.5% skimmed milk powder (MPBST) for 2.5 h at r.t., followed by three washes with PBST. The plates were then incubated with alkaline phosphatase-conjugated mouse anti-rabbit IgG antibody (Sigma), diluted 1:20000 in MPBST for 1 h at r.t., washed again three times with PBST and incubated in the dark with a 1 mg/ml solution of p-nitrophenyl phosphate (Sigma) in substrate buffer (50 mM sodium carbonate buffer, 1 mM MgCl2, pH 9.6) at r.t. The absorbance was read after an appropriate time at 405 nm using a Bio-Rad Model 3550 microplate reader.

Rabbits [2] = assay: Immunization of rabbits, ELISA cross-reaction with the same antigen attached to a different LBB (Table 2); assay type: in vivo, rabbit; conditions: for Endpoint titers (log10) 3°: after second booster
Method: as §1
The specificity of each hapten specific immune response was also analyzed by ELISA (Table 2). Here the ability of antibodies elicited by each conjugate to cross-react with the same antigen attached to a different LBB was measured.
as §2

[3] = Far UV circular dichroism spectroscopy (CONTIN analysis, thermal denaturation); assay type: physicochemical
Method: Far ultraviolet circular dichroism (CD) spectra were measured at r.t. using a Jasco J-715 spectropolarimeter and a 0.1 cm path length quartz cell. Peptide 5 solution (50 μM) and lipopeptide 4 solution (35.7 μM) were prepared in TRIS buffer (10 mM TrisHCl, 90 mM NaCl, pH 7.4) and concentrations were determined by phosphate or amino acid analysis, as appropriate. Scan speeds of 10-100 nm/min, 1-2 second response times and a 1 nm spectral bandwidth were employed and spectra were collected at a minimum resolution of 0.5 nm. After subtraction of the blank, the spectral values were reported as mean residue ellipticity [deg. cm^2/dmol] and the lipid moiety was ignored when calculating the mean residue molecular weight.
CD spectra of low concentration samples of lipopeptide 4 (2-40 μM) were measured at 20° C. with a Jasco J-810 spectropolarimeter using a 1 cm path length quartz cell. Lipopeptide solutions were prepared in PBS (10 mM Na2HPO4, 90 mM NaCl, pH 7.4) and concentrations were determined by phosphate analysis. Scan speeds of 10 nm/min, 4 second response time and a 2 nm spectral bandwidth were employed and spectra were collected at a minimum resolution of 0.5 nm. Data were elaborated as described above.

[4] = far UV CD at room temperature, FIG. 6

Question: What does the source list for “LBB6-LY-CH: conjugate of lipopeptide 6 with LY-CH-HMB (GGAVSKVLHLEGEVNKIKSALLSTNKAVVSLSNGVSVLTSKVLDLKNYIDKQC; also: conjugate of lipopeptide 6 with LY-CH-HMB)”?
Answer: log10 (Endpoint titers) 2° (Rabbits [1]; two rabbits (a, b)): 5.11; log10 (Endpoint titers) 1° (Rabbits [1]; after primary immunization (serum day 14), two rabbits (a, b)): 3.90 and 4.20; Endpoint titers (log10) 3° (Rabbits [2]; ELISA antigen LBB7-LY-CH): 5.41 and 5.71

Question: Which “aperiodic structure content (CONTIN)” value [3, 4] does the source give for “peptide 5: same peptide sequence as lipopeptide 4 but lacks the phospholipid and linker (GGAVSKVLHLEGEVNKIKSALLSTNKAVVSLSNGVSVLTSKVLDLKNYIDKQ; derived from RSV F glycoprotein)” here?
Answer: 42%

Question: And the “β-sheet content (CONTIN)” value [3, 4]?
Answer: 25%

Question: What about the “α-helix content (CONTIN)” value ([3]; far UV CD at room temperature, pH 7.4, FIG. 6) of the same molecule?
Answer: 33%

Question: And the “mid point of thermal denaturation transition” value ([3]; peptide concentration 35 μM)?
Answer: ~40 °C

Question: Which “log10 (Endpoint titers) 3°” value (Rabbits [1]) does the source give for “LBB7-LY-CH: conjugate of lipopeptide 7 with LY-CH-HMB (SGIKKEIEAIKKEQEAIKKKIEAIERMLQLTVWGIKQLQARVLAVERYLGDCG; also: conjugate of lipopeptide 7 with LY-CH-HMB)” here?
Answer: 4.41 and 4.11

Question: And the “Endpoint titers (log10) 2°” value (Rabbits [2]; ELISA antigen LBB6-LY-CH, after first booster)?
Answer: 5.01 and 4.71

Question: What about the “Endpoint titers (log10) 3°” value (Rabbits [2]; ELISA antigen LBB6-LY-CH) of the same molecule?
Answer: 5.01

B1: LBB6-12: conjugate of lipopeptide 6 with peptide 12 (conjugate)
chain: GGAVSKVLHLEGEVNKIKSALLSTNKAVVSLSNGVSVLTSKVLDLKNYIDKQC
peptide: NCRKSIHIGPGRAFYTTGCG
modifications: cyclised or stapled
Question: For B1, which “log10 (Endpoint titers) 3°” value (Rabbits [1]) is on record?
Answer: 5.01 and 4.71

B2: LBB7-12: conjugate of lipopeptide 7 with peptide 12 (conjugate)
chain: SGIKKEIEAIKKEQEAIKKKIEAIERMLQLTVWGIKQLQARVLAVERYLGDCG
peptide: NCRKSIHIGPGRAFYTTGCG
modifications: cyclised or stapled
Question: For B2, which “log10 (Endpoint titers) 2°” value (Rabbits [1]; two rabbits (a, b)) is on record?
Answer: 4.41 and 4.11

Question: What about the “log10 (Endpoint titers) 3°” value (Rabbits [1]) of the same molecule?
Answer: 4.41 and 4.11

Question: What about the “Endpoint titers (log10) 1°” value (Rabbits [2]; ELISA antigen LBB6-12, after primary immunization) of the same molecule?
Answer: <1.70
